Measurements taken from patent US20250032629A1, “NOVEL NUCLEOLIN-BINDING PEPTIDE AND USE THEREOF” (ANYGEN CO., LTD., priority 2020, published 2025).
Ends that are not written are not given here.

What was measured:
MCF-10A = experiment: Whole-cell binding (cell-growth-on-bead) assay of screened peptide beads; assay type: cell-based, human
Procedure: (§1) Here, multiple breast and colorectal cancer cells and normal breast and colorectal cells were re-suspended at 10^6 cells/ml and incubated with beads. All experiments were repeated 3 times, and the scale bar is 200 μm. […] Here, nuclei were stained with DAPI (blue), and scale bar is 50 μm. […] Here, a whole-cell binding assay was performed to determine the cell binding of AGM-330, and the scale bar is 200 μm. […] Fmoc=9-fluorenylmethoxycarbonyl, DMF=dimethylformamide. […] Here, bar graphs represent the mean±SD, and statistical analyses were performed by one-way ANOVA with Dunnett's multiple comparison. *, **, and *** indicate P<0.05, P<0.01, and P<0.001, respectively.
(§2) The beads were washed extensively with double-distilled water and phosphate-buffered saline (PBS; Welgene Inc., Korea) before screening. Cancer cells and normal cells were detached from culture dishes with trypsin/EDTA (Gibco), washed with their corresponding culture medium, resuspended at 10^6 cells/ml, and incubated with OBOC beads in Petri dishes in a humidified CO2 incubator at 37° C. with shaking (60 rpm). Beads bound by cells appeared under a microscope as rosettes with a central bead covered by one or more layers of cells. The positive beads were picked by pipette under an inverted microscope, treated with guanidine-HCL (8 M, 20 min) to remove cells and proteins on the bead surface, and subjected to a second round of screening with normal breast epithelial cells to eliminate false positive binding. Only beads with cell binding at both rounds were sent for peptide sequencing.
(§3) To identify a novel cancer-specific peptide ligand, the present inventors synthesized about 2, 600,000 libraries using 5 g of Tentagel MB NH2 resin (200 μm, 520,000 beads/g; FIG. 3).

MDA-MB-231 = experiment: as above; assay type: cell-based, human
Procedure: as §1, §2, §3

MCF-10A and CCD-18Co = experiment: Cell-growth-on-bead assay, normal cell lines; assay type: cell-based, human
Procedure: as §1, §2, §3

Cancer cells = experiment: ELISA for the affinities of AGM-330 and its variants on cancer cells; assay type: cell-based; settings: biotin-conjugated PEGylated peptides, 2 hours, read at 450
Procedure: (§4) Then, avidin-HRP was attached through a high-affinity avidin-biotin interaction, and the TMB substrate was converted to blue through HRP enzyme. Then, the reaction was terminated by adding an acid, and the affinities of the 13 peptides were assessed by ELISA by reading the wells at […].
Cancer cells (1×10^4 cells/well) were cultured in 96-well plates for 24 hours. AGM-330 and the 12 PEGylated peptides shown Table 2 were biotin-conjugated, and the cells were treated with increasing concentrations of the 13 peptides for 2 hours.
as §4, with “Thereafter, avidin-HRP” for “Then, avidin-HRP”, “blue color” for “blue”

NCL = NCL (Homo sapiens, UniProt P19338); experiment: siRNA-mediated knockdown of NCL (real-time PCR, Western blot); assay type: cell-based
[1] = target: T1, membrane nucleolin (NCL) on cancer cells (human, UniProt P19338 2-710); experiment: cell ELISA: biotin-conjugated PEGylated peptide on cancer cells (cell line not given), 2 h, avidin-HRP/TMB, absorbance at 450 nm
T1 construct: whole, on cells; also called membrane NCL; membrane-expressed NCL
Procedure: as §4, with “Cancer cells (1×10⁴ cells/well) were seeded in 96-well plates and cultured for 24 hours, and then the cells were treated with increasing concentrations of 13 biotin-conjugated peptides for 2 hours. Then, avidin-HRP” for “Then, avidin-HRP”
Cancer cells (1×10⁴ cells/well) were cultured in 96-well plates for 24 hours. AGM-330 and the 12 PEGylated peptides shown Table 2 were biotin-conjugated, and the cells were treated with increasing concentrations of the 13 peptides for 2 hours.
as §4, with “Thereafter, avidin-HRP” for “Then, avidin-HRP”, “blue color” for “blue”

T1 sequence (P19338 2-710): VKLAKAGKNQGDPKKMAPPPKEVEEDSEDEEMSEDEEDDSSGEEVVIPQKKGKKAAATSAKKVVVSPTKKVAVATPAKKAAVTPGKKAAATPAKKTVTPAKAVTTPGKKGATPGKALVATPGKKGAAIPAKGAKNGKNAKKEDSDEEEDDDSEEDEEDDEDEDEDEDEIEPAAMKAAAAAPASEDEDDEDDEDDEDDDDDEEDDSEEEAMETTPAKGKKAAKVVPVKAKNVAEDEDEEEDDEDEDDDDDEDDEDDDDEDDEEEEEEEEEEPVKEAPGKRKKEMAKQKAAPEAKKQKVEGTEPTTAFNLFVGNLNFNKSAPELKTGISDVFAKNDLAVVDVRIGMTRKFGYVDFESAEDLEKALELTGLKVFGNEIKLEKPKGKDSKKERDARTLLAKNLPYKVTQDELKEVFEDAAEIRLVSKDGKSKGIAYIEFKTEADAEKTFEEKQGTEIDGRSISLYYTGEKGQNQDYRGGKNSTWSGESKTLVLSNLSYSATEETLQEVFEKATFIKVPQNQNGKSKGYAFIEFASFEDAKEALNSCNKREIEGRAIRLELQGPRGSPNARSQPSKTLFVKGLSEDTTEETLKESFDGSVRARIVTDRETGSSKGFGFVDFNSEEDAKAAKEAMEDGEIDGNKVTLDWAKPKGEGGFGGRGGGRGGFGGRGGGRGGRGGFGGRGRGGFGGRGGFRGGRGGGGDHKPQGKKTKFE
Chain of NCL (P19338 whole entry): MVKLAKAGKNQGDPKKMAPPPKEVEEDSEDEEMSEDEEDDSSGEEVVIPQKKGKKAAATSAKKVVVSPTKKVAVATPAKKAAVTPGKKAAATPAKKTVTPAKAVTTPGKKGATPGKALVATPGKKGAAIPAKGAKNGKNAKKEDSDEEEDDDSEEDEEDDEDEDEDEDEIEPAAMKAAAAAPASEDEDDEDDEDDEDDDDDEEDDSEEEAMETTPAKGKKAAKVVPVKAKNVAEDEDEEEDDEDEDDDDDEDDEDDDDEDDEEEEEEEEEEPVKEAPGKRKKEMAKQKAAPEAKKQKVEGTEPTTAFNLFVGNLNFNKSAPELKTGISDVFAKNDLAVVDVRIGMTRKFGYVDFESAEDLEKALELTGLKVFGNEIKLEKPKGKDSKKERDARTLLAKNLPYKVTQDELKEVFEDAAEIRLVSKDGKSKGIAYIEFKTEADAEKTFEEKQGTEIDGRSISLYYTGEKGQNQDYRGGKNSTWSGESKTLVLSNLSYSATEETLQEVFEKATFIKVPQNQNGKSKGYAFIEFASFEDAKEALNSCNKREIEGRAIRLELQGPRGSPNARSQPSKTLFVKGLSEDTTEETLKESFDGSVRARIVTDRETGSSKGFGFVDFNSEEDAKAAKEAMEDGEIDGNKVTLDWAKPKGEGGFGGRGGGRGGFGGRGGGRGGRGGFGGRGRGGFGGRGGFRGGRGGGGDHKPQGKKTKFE

Molecule: ADHRHRRSG (AGM-331)
- binding to the human normal breast cell line MCF-10A (MCF-10A): no or only weak binding
- binding to MDA-MB-231 (MDA-MB-231): strong preferential binding
- binding to normal cell lines MCF-10A and CCD-18Co (MCF-10A and CCD-18Co): relatively nonspecific and bound

Molecule: AVARARRRR (AGM-332)
- binding to the human normal breast cell line MCF-10A (MCF-10A): no or only weak binding
- binding to MDA-MB-231 (MDA-MB-231): strong preferential binding
- binding to normal cell lines MCF-10A and CCD-18Co (MCF-10A and CCD-18Co): relatively nonspecific and bound

Molecule: RHGA(Nle)VYLK (RHGAXVYLK; norleucine at position 5; AGM-330; Xaa can be any naturally occurring amino acid) [SEQ ID NO: 13]
- absorbance (binding affinity) compared with AGM-330 (Cancer cells): higher absorbance than AGM-330

Molecule: RHGALVYLK (not fully specified) [SEQ ID NO: 12, AGM-330 variant, tested PEGylated and biotin-conjugated]
- absorbance (binding affinity) compared with AGM-330 (Cancer cells): higher absorbance than AGM-330

Molecule: RHGAMVFLK (not fully specified) [SEQ ID NO: 15, AGM-330 variant, tested PEGylated and biotin-conjugated]
- absorbance (binding affinity) compared with AGM-330 (Cancer cells): higher absorbance than AGM-330

Molecule: RHGAMVYLKLKLK (not fully specified) [SEQ ID NO: 20, AGM-330 variant, tested PEGylated and biotin-conjugated]
- absorbance (binding affinity) compared with AGM-330 (Cancer cells): higher absorbance than AGM-330

Molecule: siNCL1: siRNA targeting NCL, sense 5′-GAGCUAACCCUUAUCUGUA(dTdT)-3′ (SEQ ID NO: 21/22) (antisense UACAGAUAAGGGUUAGCUC; dTdT overhangs, further chemistry not given here)
- NCL knockdown efficacy (mRNA) (NCL; MDA-MB-231 cells, among siNCL1, siNCL2, siNCL3): highest knockdown efficacy
- basal expression of NCL in cytosolic and cell membrane fractions (Western blotting) (NCL; siNCL1-treated cells): potently inhibited

B1: Biotinylated AGM-330 (peptide)
peptide: RHGAMVYLK
modifications: also: biotin-conjugated (site not given here)
notes: Bait of the pull-down assays; also called AGM-330-biotin; AGM-330-Biotin
- EC50 (read off the curve) [1]: ~2 µM

Molecule: RHRHGAMVYLK (also: PEGylated, biotin-conjugated (sites not given here)) [AGM-330 variant R1H2 → Insertion (SEQ ID NO: 17)]
- binding result [1]: binds

Molecule: GAMVYLK (also: PEGylated, biotin-conjugated (sites not given here), also called GAMVYLK) [AGM-330 variant R1H2 → Deletion (SEQ ID NO: 16)]
- binding result [1]: binds

Molecule: RHGLMVYLK (also: PEGylated, biotin-conjugated (sites not given here)) [AGM-330 variant A4 → L4 (SEQ ID NO: 11)]
- EC50 (read off the curve) [1]: ~2 µM

Molecule: RHGALVYLK (also: PEGylated, biotin-conjugated (sites not given here)) [AGM-330 variant M5 → L5 (SEQ ID NO: 12)]
- EC50 (read off the curve) [1]: ~2 µM

Molecule: RRGAMVYLK (also: PEGylated, biotin-conjugated (sites not given here)) [AGM-330 variant H2 → R2 (SEQ ID NO: 10)]
- EC50 (read off the curve) [1]: ~2 µM

Molecule: RHGAMVFLK (also: PEGylated (site not given here), biotin-conjugated (site not given here)) [AGM-330 variant Y7 → F7 (SEQ ID NO: 15)]
- EC50 (read off the curve) [1]: ~2 µM

Molecule: RHGAMAYLK (also: PEGylated (site not given here), biotin-conjugated (site not given here)) [AGM-330 variant V6 → A6 (SEQ ID NO: 14)]
- EC50 (read off the curve) [1]: ~2 µM

Molecule: KHGAMVYLK (also: PEGylated, biotin-conjugated (sites not given here)) [AGM-330 variant R1 → K1 (SEQ ID NO: 9)]
- EC50 (read off the curve) [1]: ~2 µM

Molecule: RHGAMVYLKLKLK (also: PEGylated, biotin-conjugated (sites not given here)) [AGM-330 variant L10K11L12K13 → Insertion (SEQ ID NO: 20)]
- binding result [1]: binds

Molecule: RHGAXVYLK (norleucine (Nle) at position 5; PEGylated; biotin-conjugated (sites not given), also called RHGA(Nle)VYLK) [AGM-330 variant M5 → Nle5 (SEQ ID NO: 13)]
- binding result [1]: binds

Molecule: RHRHRHGAMVYLK (also: PEGylated (site not given here), biotin-conjugated (site not given here)) [AGM-330 variant R1H2R3H4 → Insertion (SEQ ID NO: 18)]
- EC50 (read off the curve) [1]: ~2 µM

Molecule: KLYVMAGHR (also: PEGylated (site not given here), biotin-conjugated (site not given here)) [AGM-330 variant Reverse sequence (SEQ ID NO: 19)]
- binding result [1]: binds
